Data as given in PMC6973309 (mAbs, 2020).

Biological target: BI 655089 (llama)
Experiment: flow cytometry on cells

B1: human CX3CR1 (receptor, UniProt P49238 1-355, looked up)
chain: MDQFPESVTENFEYDDLAEACYIGDIVVFGTVFLSIFYSVIFAIGLVGNLLVVFALTNSKKPKSVTDIYLLNLALSDLLFVATLPFWTHYLINEKGLHNAMCKFTTAFFFIGFFGSIFFITVISIDRYLAIVLAANSMNNRTVQHGVTISLGVWAAAILVAAPQFMFTKQKENECLGDYPEVLQEIWPVLRNVETNFLGFLLPLLIMSYCYFRIIQTLFSCKNHKKAKAIKLILLVVIVFFLFWTPYNVMIFLETLKLYDFFPSCDMRKDLRLALSVTETVAFSHCCLNPLIYAFAGEKFRRYLYHLYGKCLAVLCGRSVHVDFSSSESQRSRHGSVLSSNFTYHTSDGDALLLL
binding result: binds
